Assay results from the supplement of paper PMC7125110.
± gives the standard error. Variants at the floor of the assay were thinned out.

B1: glmS ribozyme (parent)
chain: AUAAAAGCGCCAGAACUACAGAAAUGUAGUUGACGAGGAGGAGGUUUAUCGAAUUUUCGGCGGAUGCCUCCAAA

Experiments:
Conditions in all cases: with glucosamine-6-phosphate
[1] = variants of: B1; experiment: self-cleavage kobs at 160 uM GlcN6P; higher = faster cleavage; RNA array
Method in brief: (§1)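 Barcoded glmS ribozyme variants on sequenced MiSeq chips were transcribed in situ by E. coli RNA polymerase and tracked through a hybridised Cy3 probe at 37 °C. Glucosamine-6-phosphate (40 μM to 10 mM) in HEPES/KCl/Mg(OAc)2 buffer was flowed in, and tiles were imaged over ~14 h. Signals were normalised to baseline and to non-cleaving reference variants; per-tile medians were fit to one- or two-exponential decays to give kobs. kcat and KM came from weighted Michaelis–Menten fits across concentrations.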

[2] = variants of: B1; experiment: self-cleavage kobs at 640 uM GlcN6P; higher = faster cleavage; RNA array
Method in brief: as §1

[3] = variants of: B1; experiment: self-cleavage kobs at 2500 uM GlcN6P; higher = faster cleavage; RNA array
Method in brief: as §1

[4] = variants of: B1; experiment: self-cleavage kobs at 10000 uM GlcN6P; higher = faster cleavage; RNA array
Method in brief: as §1

Variant: AUAAAAGCGCCCGAACUACAGAAAUGUAGUUGACGAGGAGGAGGUUUAUCUAAUUUUGGGAGGAUGCCUCCAAA
- self-cleavage kobs at 160 uM GlcN6P [1]: < 1e-05 s⁻¹

Variant: AUAAAAGCGCCCGAACUACAGAAAUGUAGUUGACGAGGAGGAGGUUUAUCGAAUUUUCGGCGGAGGCCUCCAAA
- self-cleavage kobs at 160 uM GlcN6P [1]: 0.000115 ± 2.1e-05 s⁻¹
- self-cleavage kobs at 640 uM GlcN6P [2]: 0.000543 ± 8.2e-05 s⁻¹
- self-cleavage kobs at 2500 uM GlcN6P [3]: 0.00157 ± 0.00024 s⁻¹

Variant: AUAAAAGCGCCCGAACUACAGAAAUGUAGUUGACGGGGAGGAGGUUUAUCGAAUUUUCGGCGGAUGCCCCCAAA
- self-cleavage kobs at 160 uM GlcN6P [1]: < 1e-05 s⁻¹

Variant: AUAAAAGCGCUAGAACUACAGAAAUGUAGUUGACGAGGAGGAGGUUUAUCGAAUUAUCGGCGGAUACCUCCAAA
- self-cleavage kobs at 160 uM GlcN6P [1]: 4.3e-05 ± 1.4e-05 s⁻¹
- self-cleavage kobs at 640 uM GlcN6P [2]: 8.42e-05 ± 1.7e-05 s⁻¹
- self-cleavage kobs at 2500 uM GlcN6P [3]: 0.000197 ± 4.1e-05 s⁻¹

Variant: AUAAAAGCGCCCGAACUACAGAAAUGUAGUGGACGAGGAGGAGGUUAAUCGAAUUUUCGGCGGAUGCCUCCAAA
- self-cleavage kobs at 160 uM GlcN6P [1]: 0.000155 ± 5.6e-05 s⁻¹
- self-cleavage kobs at 640 uM GlcN6P [2]: 0.000707 ± 0.00032 s⁻¹

Variant: AUAAAAGCGCUAGAACUACAGAAAUGUAGUUGACGAGGAGGAGGUUUAUCGAAUUUUCGGCGGAUGCCACCAAA
- self-cleavage kobs at 160 uM GlcN6P [1]: 5.24e-05 ± 1.6e-05 s⁻¹
- self-cleavage kobs at 640 uM GlcN6P [2]: 0.000191 ± 5.6e-05 s⁻¹
- self-cleavage kobs at 2500 uM GlcN6P [3]: 0.000157 ± 3.2e-05 s⁻¹
- self-cleavage kobs at 10000 uM GlcN6P [4]: 6.31e-05 ± 1.7e-05 s⁻¹

Variant: AUAAAAGCGCCCGAACUACAGAAAUGUAGUUGACGAGGAGGAGGUUUAUCGAAUUAUCGGCGGAUGACGCCAAA
- self-cleavage kobs at 160 uM GlcN6P [1]: 8.14e-05 ± 2.1e-05 s⁻¹
- self-cleavage kobs at 640 uM GlcN6P [2]: 0.00447 ± 0.0018 s⁻¹
- self-cleavage kobs at 2500 uM GlcN6P [3]: 0.000144 ± 4.7e-05 s⁻¹

Variant: AUAAAAGCGCCGGAACUACAGAAAUGUAGUUGAAGAGGAGGAGGUUUAUAGAAUUUUCGCCGGAUGCCUCCAAA
- self-cleavage kobs at 160 uM GlcN6P [1]: < 1e-05 s⁻¹
- self-cleavage kobs at 2500 uM GlcN6P [3]: < 1e-05 s⁻¹

Variant: AUAAAAGCGCCCGAACUACAGAAAUGUAGUUGACGAUGAGGAGGUUUAUGGAAGUUUCGGCGGAUGCCUCCAAA
- self-cleavage kobs at 160 uM GlcN6P [1]: 4.97e-05 ± 2.2e-05 s⁻¹
- self-cleavage kobs at 2500 uM GlcN6P [3]: 9.24e-05 ± 3.8e-05 s⁻¹

Variant: AUAAAAGCGCCCGAACUACAGAAAUGUAGUUGACGAGGAGGAGGUUUAUCGAAUUCUCGGCGGAUGCCUCCAAA
- self-cleavage kobs at 160 uM GlcN6P [1]: 6.31e-05 ± 1.4e-05 s⁻¹
- self-cleavage kobs at 640 uM GlcN6P [2]: 0.000455 ± 8.2e-05 s⁻¹
- self-cleavage kobs at 2500 uM GlcN6P [3]: 0.00111 ± 0.00017 s⁻¹
- self-cleavage kobs at 10000 uM GlcN6P [4]: 0.00253 ± 0.00077 s⁻¹

Variant: AUAAAAGCGCCGGAACUACAGAAAUGUAGUUGACGAGGAGGUGGUUUAUCGAAUUUUCUGCGCAUGCCUCUAAA
- self-cleavage kobs at 160 uM GlcN6P [1]: < 1e-05 s⁻¹
- self-cleavage kobs at 640 uM GlcN6P [2]: < 1e-05 s⁻¹

Variant: AUAAAAGCGCCGGAACUACAGAAAUGUAGUUGACCAGGAGGAGGUUUAUCGAAUUUUCGGCGGAUGCCUCCAAA
- self-cleavage kobs at 160 uM GlcN6P [1]: < 1e-05 s⁻¹
- self-cleavage kobs at 640 uM GlcN6P [2]: < 1e-05 s⁻¹
- self-cleavage kobs at 10000 uM GlcN6P [4]: < 1e-05 s⁻¹

Variant: AUAAAAGCGCCGGAACUACAGAAAUGUAGUUGACGUGGAGGAGGUUUAUGGAAUUUUCGGCGGUUGCUUCCAAA
- self-cleavage kobs at 160 uM GlcN6P [1]: 6.37e-05 ± 2.6e-05 s⁻¹

Variant: AUAAAAGCGCCGAAACUACAGAAAUGUAGUUGACGAGGAGGAGGCUUACAGCUUUUUCGGCGGAUUCCUCCAAA
- self-cleavage kobs at 160 uM GlcN6P [1]: < 1e-05 s⁻¹
- self-cleavage kobs at 2500 uM GlcN6P [3]: < 1e-05 s⁻¹

Variant: AUAAAAGCGCCGGAACUACAGAAAUGUAGUUGACGAGGAGGAGGUUUAUCGUAUUUUCGGCGGAUUCCUCCAAA
- self-cleavage kobs at 160 uM GlcN6P [1]: < 1e-05 s⁻¹
- self-cleavage kobs at 640 uM GlcN6P [2]: < 1e-05 s⁻¹

Variant: AUAAAAGCGCCGGAACUACAGAAAUGUAAUUGACGAGGAGCAGGUUUAUCGAAUUUUCGGCGGAUGCCUCCAAA
- self-cleavage kobs at 160 uM GlcN6P [1]: < 1e-05 s⁻¹
- self-cleavage kobs at 640 uM GlcN6P [2]: < 1e-05 s⁻¹
- self-cleavage kobs at 2500 uM GlcN6P [3]: < 1e-05 s⁻¹
- self-cleavage kobs at 10000 uM GlcN6P [4]: < 1e-05 s⁻¹
